Data on one substance can be found in US20220072094A1.

This experiment addresses PLCγ1 (mouse, endogenous, hippocampus) (mouse) (UniProt Q62077). Kind of experiment: cell-based or functional assay.

Substance “TrkB Y816F (mouse, trkB PLC/PLC knock-in) (from UniProt P15209 32-821) (receptor)” registered a decrease in pY783 PLCγ1 immunoreactivity in hippocampal synaptic membranes, trkB^PLC/PLC against trkB^WT/WT after normal saline (Western blot) of 38% and a pY783 PLCγ1 immunoreactivity in hippocampal synaptic membranes after status epilepticus, trkB^WT/WT over trkB^PLC/PLC (Western blot) of 1.84 fold.
